Source: paper PMC8163987

Target: cytoplasmic region of YhcB from Haemophilus ducreyi (residues 31 to 128) with I51M and L72M mutations (Haemophilus ducreyi) (UniProt Q7VLF5)
Assay: crystal structure; microbatch under paraffin oil, 2.0 M ammonium sulfate; SAD phasing of selenomethionine-labeled protein; 2.8 Å

Substance: cytoplasmic region of YhcB from Haemophilus ducreyi (residues 31 to 128) with I51M and L72M mutations (from UniProt Q7VLF5 31-128) (domain or fragment)
- stoichiometry N: 4
